Measured values reported in article PMC8960796, “Crystal structure report of the ImmR transcriptional regulator DNA-binding domain of the Bacillus subtilis ICEBs1 transposon” (Scientific Reports, 2022).

Target: the molecule itself
Assay: crystal structure; crystals from 18% (w/v) PEG 3350, 10 mM magnesium chloride, 50 mM Tris-HCl pH 8.5; space group I2, two protomers per a.u. related by a dyad; data at 100 K, 2.10 Å

B1: ImmR transcriptional regulator DNA-binding domain (Bacillus subtilis ICEBs1) (domain or fragment, Bacillus subtilis strain 168, UniProt P96631 1-64, looked up)
chain: MSLGKRLKEARQKAGYTQKEAAEKLNIGNNNLSNYERDYRDPDTDTLLKLSNLYNVSTDYLLGK
notes: ImmR, HTH-type transcriptional regulator of ICEBs1, Bacillus subtilis strain 168, 127 residues; the final model comprises M1-K64 of molecules A and B, each with an N-terminal alanine (A0) left from the purification tag; Full-length ImmR (1-127) was set up for crystallisation; The authors suppose that a trypsin-like contaminant cut it after K64, because there is no density beyond K64 and the …
Q: Does B1 bind?
A: Result: binds
